{
  "source": "paper PMC10247153",
  "about": "“Chromatin Sensing by the Auxiliary Domains of KDM5C Regulates Its Demethylase Activity and Is Disrupted by X-linked Intellectual Disability Mutations”",
  "molecular_target": "T1, KDM5C ARID (Homo sapiens, UniProt P41229 73-188)",
  "T1 sequence": "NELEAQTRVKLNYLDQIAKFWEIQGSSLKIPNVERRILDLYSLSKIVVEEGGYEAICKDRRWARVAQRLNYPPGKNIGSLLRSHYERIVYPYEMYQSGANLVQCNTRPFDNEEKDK",
  "assay": "EMSA; apparent Kd; EMSA: 50 mM HEPES pH 7.5, 50 mM KCl, 1 mM BME, 0.01% Tween-20, 0.01% BSA, 5% sucrose, 1 h on ice; 100 nM nucleosome or 147 bp DNA, 500 nM 20 bp DNA; gel at 4 C.",
  "conditions": "protein: recombinant; tags: 6xHis-SUMO cleaved",
  "data": [
    {"binder": "5' flanking (linker) DNA 20 bp (dsDNA) DNA 1: GGACCCTATACGCGGCCGCC DNA 2: GGCGGCCGCGTATAGGGTCC", "values": [
      {"measurement": "Kd", "value": "9.9 ± 0.4", "unit": "µM"}
    ]}
  ]
}
